Consider one molecule from patent US20140302524A1.

Assay [1] concerns the target full-length human LOXL2 protein (human) (UniProt Q9Y4K0). Kind of assay: ELISA, LOXL2 coated.
For assay [2] the target is unchanged. Briefly: cell-based or functional assay.

Sequence of UniProt Q9Y4K0 (Q9Y4K0 other isoform, or with tags, fused parts or gaps): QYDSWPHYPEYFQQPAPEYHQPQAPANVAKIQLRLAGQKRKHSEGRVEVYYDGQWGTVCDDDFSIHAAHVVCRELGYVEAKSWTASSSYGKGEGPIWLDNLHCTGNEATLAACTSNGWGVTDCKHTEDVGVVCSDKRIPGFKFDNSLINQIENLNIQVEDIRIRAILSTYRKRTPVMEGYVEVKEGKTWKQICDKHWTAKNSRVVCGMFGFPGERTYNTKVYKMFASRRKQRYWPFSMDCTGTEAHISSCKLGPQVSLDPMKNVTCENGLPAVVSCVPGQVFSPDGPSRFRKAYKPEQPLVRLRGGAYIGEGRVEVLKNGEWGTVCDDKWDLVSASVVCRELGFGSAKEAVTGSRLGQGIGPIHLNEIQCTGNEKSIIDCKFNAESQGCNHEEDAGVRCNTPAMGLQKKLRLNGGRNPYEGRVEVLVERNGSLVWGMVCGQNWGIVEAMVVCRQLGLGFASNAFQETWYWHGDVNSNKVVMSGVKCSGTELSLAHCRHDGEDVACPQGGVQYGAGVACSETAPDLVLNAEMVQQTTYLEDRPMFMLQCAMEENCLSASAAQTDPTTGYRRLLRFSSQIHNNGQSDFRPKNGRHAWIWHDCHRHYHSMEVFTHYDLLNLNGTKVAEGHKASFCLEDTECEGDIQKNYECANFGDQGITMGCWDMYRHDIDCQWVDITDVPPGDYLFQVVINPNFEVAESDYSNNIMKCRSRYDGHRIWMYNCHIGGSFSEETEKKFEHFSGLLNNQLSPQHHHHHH

B1: AB0023 (antibody, from another filing, V domains shown)
VH: QVQLQQSGAELVRPGTSVKVSCKASGYAFTYYLIEWVKQRPGQGLEWIGVINPGSGGTNYNEKFKGKATLTADKSSSTAYMQLSSLTSDDSAVYFCARNWMNFDYWGQGTTLTVSS
VL: DIVMTQAAPSVSVTPGESVSISCRSSKSLLHSNGNTYLYWFLQRPGQSPQFLIYRMSNLASGVPDRFSGSGSGTAFTLRISRVEAEDVGVYYCMQHLEYPYTFGGGTKLEIK
Regarding B1, in assay [1], the Kd was below 1 nM. The IC50′ (nM), inhibition of LOXL2 enzymatic activity (Amplex Red assay); substrate DAP, collagen in assay [2] is 62 nM.

The term Kd denotes a measure of binding affinity in units of concentration. Low readings indicate tighter binding, high ones weaker binding.
